15 substances from IntAct's records for PubMed 29892012 can be followed below.

Some targets named below: ntaq1_human NTAQ1 (UniProt Q96HA8); ikzf3_human IKZF3 (UniProt Q9UKT9); neca2_human NECAB2 (UniProt Q7Z6G3); taso2_human TASOR2 (UniProt Q5VWN6); tri23_human TRIM23 (UniProt P36406); dpyl2_human DPYSL2 (UniProt Q16555); gors2_human GORASP2 (UniProt Q9H8Y8); dpyl3_human DPYSL3 (UniProt Q14195); kr101_human KRTAP10-1 (UniProt P60331); kr103_human KRTAP10-3 (UniProt P60369); kr105_human KRTAP10-5 (UniProt P60370); mdfi_human MDFI (UniProt Q99750); aakb2_human PRKAB2 (UniProt O43741); zbt24_human ZBTB24 (UniProt O43167); aagab_human AAGAB (UniProt Q6PD74); leg9b_human LGALS9B (UniProt Q3B8N2); pdli7_human PDLIM7 (UniProt Q9NR12); erep1_human ENTREP1 (UniProt Q15884); hnrl1_human HNRNPUL1 (UniProt Q9BUJ2); fxl18_human FBXL18 (UniProt Q96ME1); ctsr1_human CATSPER1 (UniProt Q8NEC5); creb3_human CREB3 (UniProt O43889); zn446_human ZNF446 (UniProt Q9NWS9); stat3_human STAT3 (UniProt P40763); efs_human EFS (UniProt O43281); hnrll_human HNRNPLL (UniProt Q8WVV9); ZNF385C (UniProt Q66K41); tyk2_human TYK2 (UniProt P29597); ytdc1_human YTHDC1 (UniProt Q96MU7); rbm42_human RBM42 (UniProt Q9BTD8); U2AF1 (UniProt Q01081); abi2_human ABI2 (UniProt Q9NYB9); rbm7_human RBM7 (UniProt Q9Y580); grap2_human GRAP2 (UniProt O75791); prr3_human PRR3 (UniProt P79522); qki_human QKI (UniProt Q96PU8); cirbp_human CIRBP (UniProt Q14011); pex39_human PEX39 (UniProt Q5I0X4); cep76_human CEP76 (UniProt Q8TAP6).

The target of the next test is T1, dest_human DSTN (UniProt P60981).
T1 sequence: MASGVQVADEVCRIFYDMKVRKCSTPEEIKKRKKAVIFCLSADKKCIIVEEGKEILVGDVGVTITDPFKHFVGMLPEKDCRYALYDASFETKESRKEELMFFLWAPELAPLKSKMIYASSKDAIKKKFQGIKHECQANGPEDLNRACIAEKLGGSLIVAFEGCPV

Test [1] concerns the target inca1_human INCA1 (UniProt Q0VD86).
In test [2] the target is itf2_human TCF4 (UniProt P15884).
Test [3] addresses kr108_human KRTAP10-8 (UniProt P60410).
Another test deals with T2, dpyl5_human DPYSL5 (UniProt Q9BPU6).
T2 sequence: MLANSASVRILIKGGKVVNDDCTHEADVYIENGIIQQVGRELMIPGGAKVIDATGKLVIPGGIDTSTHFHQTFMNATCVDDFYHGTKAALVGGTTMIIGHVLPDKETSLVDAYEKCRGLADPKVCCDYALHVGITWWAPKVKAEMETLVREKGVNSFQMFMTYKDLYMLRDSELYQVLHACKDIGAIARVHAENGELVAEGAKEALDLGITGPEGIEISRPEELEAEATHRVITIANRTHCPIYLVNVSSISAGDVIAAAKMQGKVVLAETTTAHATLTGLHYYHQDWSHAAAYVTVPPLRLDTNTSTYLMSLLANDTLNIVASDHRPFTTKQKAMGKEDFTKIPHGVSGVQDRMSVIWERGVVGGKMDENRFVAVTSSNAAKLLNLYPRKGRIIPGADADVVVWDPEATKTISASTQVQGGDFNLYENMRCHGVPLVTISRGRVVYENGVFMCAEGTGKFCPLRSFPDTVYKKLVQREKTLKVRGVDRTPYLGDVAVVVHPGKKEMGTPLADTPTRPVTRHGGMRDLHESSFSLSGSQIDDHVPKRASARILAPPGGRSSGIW

Test [4] concerns the target kr108_human KRTAP10-8 (UniProt P60410). The source holds these as a separate data set.
Test [5] concerns the target itf2_human TCF4 (UniProt P15884). This is another data set of the same source.
The target in test [6] is inca1_human INCA1 (UniProt Q0VD86). This is another data set of the same source.
Chain of inca1_human INCA1 (Q0VD86 whole entry): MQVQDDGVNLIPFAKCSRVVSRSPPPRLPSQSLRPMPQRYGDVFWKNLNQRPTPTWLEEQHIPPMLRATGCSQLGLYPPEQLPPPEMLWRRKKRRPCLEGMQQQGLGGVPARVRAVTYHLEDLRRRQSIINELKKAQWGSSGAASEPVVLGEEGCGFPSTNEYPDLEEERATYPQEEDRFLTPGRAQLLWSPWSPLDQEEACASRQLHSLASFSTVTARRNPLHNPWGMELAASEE

Chain of Serine/threonine-protein kinase Nek6 (Homo sapiens), Q9HC98 R195C (Q9HC98 whole entry R195C): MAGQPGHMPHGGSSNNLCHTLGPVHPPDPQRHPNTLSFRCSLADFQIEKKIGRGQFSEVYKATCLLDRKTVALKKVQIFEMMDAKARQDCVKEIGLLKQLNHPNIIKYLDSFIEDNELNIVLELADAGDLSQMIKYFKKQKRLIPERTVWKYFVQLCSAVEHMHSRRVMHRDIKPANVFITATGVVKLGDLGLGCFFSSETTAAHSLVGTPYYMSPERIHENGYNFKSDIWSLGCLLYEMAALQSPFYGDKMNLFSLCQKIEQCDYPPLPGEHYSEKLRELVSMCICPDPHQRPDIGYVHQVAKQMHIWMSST
Chain of Zinc finger protein 559 (Homo sapiens), Q9BR84 K62I (Q9BR84 whole entry K62I): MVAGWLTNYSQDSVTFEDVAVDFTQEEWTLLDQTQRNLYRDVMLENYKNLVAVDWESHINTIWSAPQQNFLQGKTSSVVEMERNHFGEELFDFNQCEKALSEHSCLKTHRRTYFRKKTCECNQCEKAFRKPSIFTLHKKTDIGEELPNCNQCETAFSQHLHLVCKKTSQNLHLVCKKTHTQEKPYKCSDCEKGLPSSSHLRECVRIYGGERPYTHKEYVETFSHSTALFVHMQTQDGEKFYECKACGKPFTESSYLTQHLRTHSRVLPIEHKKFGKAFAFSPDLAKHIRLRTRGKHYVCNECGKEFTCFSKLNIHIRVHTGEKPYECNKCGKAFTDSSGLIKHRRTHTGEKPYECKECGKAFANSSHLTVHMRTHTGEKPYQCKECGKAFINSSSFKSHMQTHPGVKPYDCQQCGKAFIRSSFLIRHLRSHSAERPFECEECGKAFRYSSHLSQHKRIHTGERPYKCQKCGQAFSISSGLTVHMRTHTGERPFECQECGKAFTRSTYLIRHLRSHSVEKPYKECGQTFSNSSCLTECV
Chain of itf2_human TCF4 (P15884 whole entry): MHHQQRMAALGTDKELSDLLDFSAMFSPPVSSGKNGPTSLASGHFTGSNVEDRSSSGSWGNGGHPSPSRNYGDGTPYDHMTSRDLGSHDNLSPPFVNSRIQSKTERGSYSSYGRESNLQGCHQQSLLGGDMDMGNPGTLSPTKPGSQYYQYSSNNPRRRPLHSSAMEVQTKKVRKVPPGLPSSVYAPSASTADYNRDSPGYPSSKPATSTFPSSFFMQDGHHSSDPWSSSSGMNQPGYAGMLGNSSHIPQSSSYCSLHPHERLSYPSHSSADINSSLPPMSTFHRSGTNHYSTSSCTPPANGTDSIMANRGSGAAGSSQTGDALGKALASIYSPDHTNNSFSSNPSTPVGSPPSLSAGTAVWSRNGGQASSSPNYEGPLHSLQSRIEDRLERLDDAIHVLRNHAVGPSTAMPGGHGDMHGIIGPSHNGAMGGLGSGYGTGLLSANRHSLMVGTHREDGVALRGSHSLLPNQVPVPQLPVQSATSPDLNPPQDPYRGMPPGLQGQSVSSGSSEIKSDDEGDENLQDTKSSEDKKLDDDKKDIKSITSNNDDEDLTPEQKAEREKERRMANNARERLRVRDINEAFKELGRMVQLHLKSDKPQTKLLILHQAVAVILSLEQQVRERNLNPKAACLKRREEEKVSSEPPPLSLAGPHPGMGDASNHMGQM
Chain of kr108_human KRTAP10-8 (P60410 whole entry): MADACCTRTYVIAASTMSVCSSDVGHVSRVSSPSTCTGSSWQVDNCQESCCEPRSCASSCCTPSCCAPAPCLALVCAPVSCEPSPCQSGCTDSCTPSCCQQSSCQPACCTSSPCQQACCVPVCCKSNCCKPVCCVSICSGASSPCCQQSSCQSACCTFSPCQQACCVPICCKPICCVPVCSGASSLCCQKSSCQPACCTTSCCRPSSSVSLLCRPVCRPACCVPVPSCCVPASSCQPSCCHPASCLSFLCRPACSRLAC
Chain of Apolipoprotein A-II (Homo sapiens), P02652 Q71R (P02652 whole entry Q71R): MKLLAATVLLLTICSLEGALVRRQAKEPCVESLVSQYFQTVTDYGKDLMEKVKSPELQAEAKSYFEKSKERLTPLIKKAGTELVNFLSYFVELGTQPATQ
Chain of Tyrosine-protein kinase Blk (Homo sapiens), P51451 I338T (P51451 whole entry I338T): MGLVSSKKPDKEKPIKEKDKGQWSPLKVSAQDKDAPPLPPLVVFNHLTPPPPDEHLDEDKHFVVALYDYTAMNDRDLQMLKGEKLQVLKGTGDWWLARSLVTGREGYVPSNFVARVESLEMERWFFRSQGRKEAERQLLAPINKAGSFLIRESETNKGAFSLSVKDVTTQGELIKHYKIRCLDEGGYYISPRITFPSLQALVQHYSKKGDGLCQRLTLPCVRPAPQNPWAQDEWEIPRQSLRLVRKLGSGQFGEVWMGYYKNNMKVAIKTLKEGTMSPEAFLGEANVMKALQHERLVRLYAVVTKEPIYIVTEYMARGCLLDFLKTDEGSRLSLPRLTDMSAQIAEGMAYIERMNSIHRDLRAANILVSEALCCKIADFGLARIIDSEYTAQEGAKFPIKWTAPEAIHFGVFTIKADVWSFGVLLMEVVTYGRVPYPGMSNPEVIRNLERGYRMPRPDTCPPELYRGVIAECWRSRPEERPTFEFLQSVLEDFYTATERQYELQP
Chain of stat3_human STAT3 (P40763 whole entry): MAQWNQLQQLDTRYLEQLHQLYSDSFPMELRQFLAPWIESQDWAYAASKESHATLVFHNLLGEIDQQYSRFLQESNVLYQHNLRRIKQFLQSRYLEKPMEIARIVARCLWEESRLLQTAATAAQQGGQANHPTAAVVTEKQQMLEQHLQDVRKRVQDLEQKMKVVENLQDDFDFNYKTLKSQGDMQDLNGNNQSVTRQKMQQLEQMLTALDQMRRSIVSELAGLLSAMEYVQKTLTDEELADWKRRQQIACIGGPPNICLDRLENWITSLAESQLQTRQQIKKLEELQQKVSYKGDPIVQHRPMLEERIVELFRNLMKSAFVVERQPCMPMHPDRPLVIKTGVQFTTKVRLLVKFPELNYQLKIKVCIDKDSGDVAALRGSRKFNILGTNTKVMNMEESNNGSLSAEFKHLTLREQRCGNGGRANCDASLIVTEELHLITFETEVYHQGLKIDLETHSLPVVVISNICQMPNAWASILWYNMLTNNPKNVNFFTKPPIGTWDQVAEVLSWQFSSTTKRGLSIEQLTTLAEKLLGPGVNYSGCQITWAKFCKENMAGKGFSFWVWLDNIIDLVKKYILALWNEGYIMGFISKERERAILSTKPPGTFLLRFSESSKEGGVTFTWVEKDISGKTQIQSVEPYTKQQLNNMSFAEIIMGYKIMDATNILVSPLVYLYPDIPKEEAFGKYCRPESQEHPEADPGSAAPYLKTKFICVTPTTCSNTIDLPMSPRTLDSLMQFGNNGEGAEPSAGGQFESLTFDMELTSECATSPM
Chain of cep76_human CEP76 (Q8TAP6 whole entry): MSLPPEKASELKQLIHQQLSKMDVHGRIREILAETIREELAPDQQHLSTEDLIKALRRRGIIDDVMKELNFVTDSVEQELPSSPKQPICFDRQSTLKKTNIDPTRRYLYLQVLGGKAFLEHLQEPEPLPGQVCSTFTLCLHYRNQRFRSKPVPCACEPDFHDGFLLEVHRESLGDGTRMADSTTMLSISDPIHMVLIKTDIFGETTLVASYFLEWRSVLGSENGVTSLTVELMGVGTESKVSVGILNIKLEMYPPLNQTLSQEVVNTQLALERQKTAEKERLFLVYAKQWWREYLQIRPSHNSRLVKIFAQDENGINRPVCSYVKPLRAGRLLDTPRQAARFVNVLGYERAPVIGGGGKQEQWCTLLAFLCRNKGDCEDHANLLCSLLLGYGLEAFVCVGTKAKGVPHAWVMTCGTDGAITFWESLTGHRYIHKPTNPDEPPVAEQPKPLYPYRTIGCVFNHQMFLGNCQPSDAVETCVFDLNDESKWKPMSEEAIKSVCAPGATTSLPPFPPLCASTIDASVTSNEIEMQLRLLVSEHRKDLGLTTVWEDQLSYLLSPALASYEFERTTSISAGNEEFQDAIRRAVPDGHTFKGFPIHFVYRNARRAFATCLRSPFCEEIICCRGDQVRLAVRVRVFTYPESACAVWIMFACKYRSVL
Chain of U2AF1 (Q01081 whole entry): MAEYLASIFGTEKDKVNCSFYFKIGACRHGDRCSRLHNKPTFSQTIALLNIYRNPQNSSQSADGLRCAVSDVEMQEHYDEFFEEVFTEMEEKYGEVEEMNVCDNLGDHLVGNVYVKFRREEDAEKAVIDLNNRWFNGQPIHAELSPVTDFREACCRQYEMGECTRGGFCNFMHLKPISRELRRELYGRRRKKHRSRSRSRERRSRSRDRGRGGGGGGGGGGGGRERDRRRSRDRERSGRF
Chain of Zinc finger and SCAN domain-containing protein 30 (Homo sapiens), Q86W11 G186S (Q86W11 whole entry G186S, the tested form may be a part): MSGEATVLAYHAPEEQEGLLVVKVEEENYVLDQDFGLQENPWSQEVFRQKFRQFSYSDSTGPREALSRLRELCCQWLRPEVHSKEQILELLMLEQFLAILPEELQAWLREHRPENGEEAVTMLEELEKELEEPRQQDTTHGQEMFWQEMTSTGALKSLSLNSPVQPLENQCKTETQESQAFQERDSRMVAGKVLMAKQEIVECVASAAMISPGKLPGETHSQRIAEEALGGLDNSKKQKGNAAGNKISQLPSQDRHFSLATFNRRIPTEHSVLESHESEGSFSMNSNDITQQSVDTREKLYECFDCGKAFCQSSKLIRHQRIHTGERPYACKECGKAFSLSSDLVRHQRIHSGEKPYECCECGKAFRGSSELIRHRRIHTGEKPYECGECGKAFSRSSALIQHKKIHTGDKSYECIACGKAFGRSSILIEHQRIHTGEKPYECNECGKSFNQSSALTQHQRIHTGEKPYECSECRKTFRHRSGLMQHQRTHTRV
Chain of pex39_human PEX39 (Q5I0X4 whole entry): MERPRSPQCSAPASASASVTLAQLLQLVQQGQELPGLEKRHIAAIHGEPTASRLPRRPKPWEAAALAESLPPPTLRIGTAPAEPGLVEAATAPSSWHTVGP

Regarding “Actin, cytoplasmic 1 (Homo sapiens) (from UniProt P60709) R372C”, the “effect of a mutation on the interaction” value with dest_human DSTN and with ntaq1_human NTAQ1 was “with no effect” in each case.

With “Serine/threonine-protein kinase Nek6 (Homo sapiens), Q9HC98 R195C”, the “effect of a mutation on the interaction” value with ikzf3_human IKZF3 is given as “disrupting interaction strength”; with neca2_human NECAB2, “disrupting interaction strength”; in the test with inca1_human INCA1 [1], “with no effect”; with taso2_human TASOR2 it was “disrupting interaction strength”; with itf2_human TCF4 [2], “with no effect”; with tri23_human TRIM23, “disrupting interaction strength”.

For the substance “Cyclin-J-like protein (Homo sapiens), Q8IV13 W188R”, the “effect of a mutation on the interaction” value in the test with kr108_human KRTAP10-8 [3] is “with no effect”.

For “Dihydropyrimidinase-related protein 3 (Homo sapiens), Q14195 V25I”, the “effect of a mutation on the interaction” value with dpyl2_human DPYSL2 is on record as “with no effect”.

On to “Dihydropyrimidinase-related protein 2 (Homo sapiens) (from UniProt Q16555) R496C”, for which the “effect of a mutation on the interaction” value is reported as “with no effect” with dpyl5_human DPYSL5, “disrupting interaction strength” with gors2_human GORASP2 and “with no effect” with dpyl3_human DPYSL3.

Take “Solute carrier family 23 member 1 (Homo sapiens), Q9UHI7 L461M”: the “effect of a mutation on the interaction” value with kr108_human KRTAP10-8 [4] is listed as “with no effect”.

As to “Zinc finger protein 559 (Homo sapiens), Q9BR84 K62I”, the “effect of a mutation on the interaction” value in the test with kr101_human KRTAP10-1, with kr103_human KRTAP10-3, in the test with kr105_human KRTAP10-5 and with mdfi_human MDFI was “with no effect” in each case.

Turning to “Krueppel-like factor 15 (Homo sapiens), Q9UIH9 G206R”, the “effect of a mutation on the interaction” value with aakb2_human PRKAB2 and with zbt24_human ZBTB24 was “with no effect” each time.

Consider “AP-2 complex subunit sigma (Homo sapiens), P53680 G64D”, for which, in the test with aagab_human AAGAB, the “effect of a mutation on the interaction” value is recorded as “with no effect”.

Consider “NEDD4-like E3 ubiquitin-protein ligase WWP2 (Homo sapiens), O00308 R178W”, for which the “effect of a mutation on the interaction” value in the test with leg9b_human LGALS9B, with pdli7_human PDLIM7, with erep1_human ENTREP1, with hnrl1_human HNRNPUL1 and in the test with fxl18_human FBXL18 was “with no effect” each time.

For “Apolipoprotein A-II (Homo sapiens), P02652 Q71R”, the “effect of a mutation on the interaction” value with ctsr1_human CATSPER1 and with creb3_human CREB3 was “with no effect” each time.

In the case of “Zinc finger and SCAN domain-containing protein 30 (Homo sapiens), Q86W11 G186S”, the “effect of a mutation on the interaction” value with zn446_human ZNF446 is reported as “with no effect”.

On to “Tyrosine-protein kinase Blk (Homo sapiens), P51451 I338T”, for which the results for the “effect of a mutation on the interaction” value with stat3_human STAT3 and in the test with efs_human EFS were “disrupting interaction strength” and “with no effect”, respectively.

As for “Heterogeneous nuclear ribonucleoprotein K (Homo sapiens), P61978 R377H”, the “effect of a mutation on the interaction” value with hnrll_human HNRNPLL, with ZNF385C, with tyk2_human TYK2, with ytdc1_human YTHDC1, with rbm42_human RBM42 and in the test with U2AF1 was “with no effect” each time. Moreover, the “effect of a mutation on the interaction” value with abi2_human ABI2, in the test with rbm7_human RBM7, in the test with grap2_human GRAP2, with prr3_human PRR3, with qki_human QKI and with cirbp_human CIRBP was “with no effect” throughout. Further, the “effect of a mutation on the interaction” value with pex39_human PEX39 is listed as “with no effect”.

With “Calcium-binding protein 5 (Homo sapiens), Q9NP86 T59M”, the “effect of a mutation on the interaction” value with itf2_human TCF4 [5], with inca1_human INCA1 [6] and with cep76_human CEP76 was “with no effect” in each case.
